Numbering of substitutions follows the chain as printed. Like-named read-outs stand apart in the source and are kept apart here.

The results in this text go back to paper doi:10.1101/2021.03.15.435440 (bioRxiv, 2021).

Experiment [1] deals with T1, wildtype SARS-2 RBD (SARS-CoV-2, GenBank MN975262.1 …, UniProt A0A679G9E9).
Experiment [2] concerns the target T1, wildtype SARS-2 RBD. Put plainly: BLI. In general terms: Biolayer interferometry detects binding as a change in optical thickness at a sensor tip.

B1: Ab19 (antibody, V domains shown)
VH: QVQLQQSGAELARPGASVKLSCKASGYPFTSYGINWVKQRTGQGLEWIGEIYPRIGNTYYNEKFKGKATLTADKSSSTAYMEFRSLTSEDSAVYFCARSWNSNYGEYYFDYWGQGTTLTVS
VL: DIVMTQSHKFMSTSIGDRVSITCKASHDVSTAVAWYQQKPGQSPKLLIYWASTRHTGVPDRFTGSGSGTDYTLTIRSVQAEDLALYYCQQHYSTPYTFGGGTKLEIK
B1: in experiment [1], the binding result is recorded as “binds”.

B2: Ab15 (antibody, V domains shown)
VH: EVQLQQSGPELVKPGASVKISCKASGYSFTGYYMNWVKQSPEKSLEWIGEINPNFGGTTYNQKFKAKATLTVDKSSSTAYMQLKSLTSEDSAVYYCARYYGNLYAMDYWGQGTSVTVS
VL: DILMTQSPSSMSVSLGDTVSITCHASQGISSNIGWLQQKPGKSFKGLIYHGTNLEDGVPSRFSGSGSGAAYSLTISSLESEDFADYYCVQYTHFPYTFGGGTKLEIK
For B2, the binding result in experiment [1] is given as “binds”.

B3: Ab16 Fab (Fab, V domains shown)
VH: B2 VH with T30N, G31N, F55S, G57Y, T59S, K65R, S77T, Y100F, Y104F, Y108F
VL: B2 VL with S30G, H50L, A70D, T92V, H93Q
In the case of B3, in experiment [2], the binding result is “binds”.

B4: Ab20 (antibody, V domains shown)
VH: EVQLQQSGPELVKPGASVKISCKASGFSFTGYSMNWMKQSPEKSLEWIGEINPTTGGTTYNQKFKAKATLTVDKSSSTAYIQLKSLTSEDSAVYYCARGRADYWGQGTTLTVSS
VL: DIVLTQSPASLAVSLGQRATISCRASESVEYYGTGLVQWFQQKPGQPPKLLIYAASNVESGVPARFSGSGSGTDFSLNIHSVEEDDIAMYFCHQSRKLPWTFGGGTKLEIK
For the molecule B4, the binding result in experiment [1] is listed as “binds”.
